# According to IntAct's records for PubMed 24535599:
# B1: Growth factor receptor-bound protein 14 (Homo sapiens), Q14449 (parent)
# chain: MTTSLQDGQSAASRAAARDSPLAAQVCGAAQGRGDAHDLAPAPWLHARALLPLPDGTRGCAADRRKKKDLDVPEMPSIPNPFPELCCSPFTSVLSADLFPKANSRKKQVIKVYSEDETSRALDVPSDITARDVCQLLILKNHYIDDHSWTLFEHLPHIGVERTIEDHELVIEVLSNWGIEEENKLYFRKNYAKYEFFKNPMYFFPEHMVSFATETNGEISPTQILQMFLSSSTYPEIHGFLHAKEQGKKSWKKIYFFLRRSGLYFSTKGTSKEPRHLQFFSEFGNSDIYVSLAGKKKHGAPTNYGFCFKPNKAGGPRDLKMLCAEEEQSRTCWVTAIRLLKYGMQLYQNYMHPYQGRSGCSSQSISPMRSISENSLVAMDFSGQKSRVIENPTEALSVAVEEGLAWRKKGCLRLGTHGSPTASSQSSATNMAIHRSQPWFHHKISRDEAQRLIIQQGLVDGVFLVRDSQSNPKTFVLSMSHGQKIKHFQIIPVEDDGEMFHTLDDGHTRFTDLIQLVEFYQLNKGVLPCKLKHYCARIAL
# Variants of: B1
# Conditions: with INSR
row,Variant,effect of a mutation on the interaction
1,MTTSLQDGQSAASRAAARDSPLAAQVCGAAQGRGDAHDLAPAPWLHARALLPLPDGTRGCAADRRKKKDLDVPEMPSIPNPFPELCCSPFTSVLSADLFPKANSRKKQVIKVYSEDETSRALDVPSDITARDVCQLLILKNHYIDDHSWTLFEHLPHIGVERTIEDHELVIEVLSNWGIEEENKLYFRKNYAKYEFFKNPMYFFPEHMVSFATETNGEISPTQILQMFLSSSTYPEIHGFLHAKEQGKKSWKKIYFFLRRSGLYFSTKGTSKEPRHLQFFSEFGNSDIYVSLAGKKKHGAPTNYGFCFKPNKAGGPRDLKMLCAEEEQSRTCWVTAIRLLKYGMQLYQNYMHPYQGRAGCSAQSIAPMRSISENSLVAMDFSGQKSRVIENPTEALSVAVEEGLAWRKKGCLRLGTHGSPTASSQSSATNMAIHRSQPWFHHKISRDEAQRLIIQQGLVDGVFLVRDSQSNPKTFVLSMSHGQKIKHFQIIPVEDDGEMFHTLDDGHTRFTDLIQLVEFYQLNKGVLPCKLKHYCARIAL [S358A;S362A;S366A],increasing interaction strength
